This note sets out measurements from US20180044385A1.

A value given as a limit tells only on which side of the number the result lay.

The target in assay [1] is 4D5 Fab scaffold possessing a human IgG1 CH1 and a Kappa light chain. The assay is described as follows: SPR.
The target is the same in assay [2]. The assay is described as follows: equilibrium SPR.
Assay [3] deals with Fab with lambda light chain (Cλ). As to the kind of experiment: ELISA; reference is the Fab with kappa light chain.
For another assay, the target named is IgG2, IgG3 and IgG4. As to the kind of experiment: method not stated (data not shown).
Assay [4] has as its target 4D5 Fab scaffold possessing a human IgG1 CH1 and a Kappa light chain. As to the kind of experiment: fluorescence polarization with Alexa-Fluor labeled Protein-G, pH varied.
The target of assay [5] is FabHS (a human 4D5 scaffold with residues PEELRTNK replacing light chain positions 122-129). The assay is described as follows: protein ELISA.

B1: Protein-G-A1 (designed binder)
chain: MKGETTTEAVDAATAEKVFKQYANDNGVDGEWTYDDATKTFTVTEKPEVIDASELTPAVTTYKLVINGRTLSGYTTTTAVDAATAEKVFKQYAYVHEVDGEWTYDDATKTFTVTEKPEVIDASELTPAVTTYKLVINGRTLSGETTTKAVDAETAEKAFKQYANDNGVDGVWTYDDATKTFTVTE
Consider B1, for which, in assay [1], the fold higher affinity than wild-type Protein-G was 100 fold. In assay [2], the Kd was found to be 25 nM. Besides, the EC50 ratio, Cλ Fab over CK Fab in assay [3] is above 5000 fold. The fold decrease in affinity relative to human IgG1 in the assay with IgG2, IgG3 and IgG4 was 20 to 50 fold. In assay [4], this molecule gave a fold decrease in affinity from pH 7.5 to pH 4 of 1000 fold; a fold loss of affinity between pH 5.5 and pH 4.0 of 300 fold.

B2: Protein-G-HS C7 (designed binder)
chain: MKGETTTEAVDAATAEKVFKQYANDNGVDGEWTYDDATKTFTVTEKPEVIDASELTPAVTTYKLVINGKTLKGETTTEAVDAATAEKVFKQYANDNGVDGEWTYDDATKTFTVTEKPEVIDASELTPAVTTYKLVINGRTLSGETTTKAVDAETAEKAFKQYAYGAVVDGVWTYDDATKTFTVTE
The molecule B2 registered an IC50 in assay [5] of 100 nM.

B3: Protein-G-HS C6 (designed binder)
chain: MKGETTTEAVDAATAEKVFKQYANDNGVDGEWTYDDATKTFTVTEKPEVIDASELTPAVTTYKLVINGKTLKGETTTEAVDAATAEKVFKQYANDNGVDGEWTYDDATKTFTVTEKPEVIDASELTPAVTTYKLVINGRTLSGETTTKAVDAETAEKAFKQYSRPHVVDGVWTYDDATKTFTVTE
B3 came in with an IC50 in assay [5] of 8 nM.
